Experimental data published in PMC3861120, “A Domesticated PiggyBac Transposase Interacts with Heterochromatin and Catalyzes Reproducible DNA Elimination in Tetrahymena” (PLoS Genetics, 2013).
Where no end group is shown, it is not given here. [ ]: non-standard residue; d: D form. Lys(Me3) = C[N+](C)(C)CCCC[C@H](N)C(=O)O; PEG = not defined here

T1: MBP-tagged cysteine-rich domain (566 aa-657 aa) of Tpb2p, MBP-Tpb2p-CRD (WT) (Tetrahymena thermophila, UniProt D2Z1K6 566-657)
T1 construct: Tpb2p (Tetrahymena piggyBac-like transposase 2), cysteine-rich domain, aa 566-657; amplified from a codon-optimized TPB2 coding region in pMAL-TPB2; Cloned in pMalC2X, which is expected to put MBP at the N-terminus (surmise); also called cysteine-rich domain of Tpb2p; source: E. coli BL21(DE3), purified (Amylose resin, maltose elution, dialysis)
T1 sequence (looked up): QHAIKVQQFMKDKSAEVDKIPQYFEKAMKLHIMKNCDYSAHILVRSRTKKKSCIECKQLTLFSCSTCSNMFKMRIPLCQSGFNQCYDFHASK

B1: Tetrahymena histone H3 peptide, amino acids 1-19, unmodified, C-terminally biotinylated (peptide, UniProt P69150 2-20, looked up)
peptide: ARTKQTARKSTGAKAPRKQ-{PEG-biotin}
modifications: reading uncertain
notes: histone H3, Tetrahymena, amino acids 1-19; also called unmodified peptide (1-19); source: synthetic peptide
B2: Tetrahymena histone H3 peptide, amino acids 16-35, unmodified, C-terminally biotinylated (peptide, UniProt P69150 17-36, looked up)
peptide: PRKQLASKAARKSAPATGGI-{PEG-biotin}
modifications: reading uncertain
notes: histone H3, Tetrahymena, amino acids 16-35; also called unmodified peptide (16-35); source: synthetic peptide
B3: Tetrahymena histone H3 peptide, amino acids 1-19, tri-methylated at lysine 9, C-terminally biotinylated (peptide, UniProt P69150 2-20, looked up)
peptide: ARTKQTARKSTGAKAPRKQ
modifications: tri-methylated lysine 9; biotin at the C-terminus with a PEG linker
notes: histone H3, Tetrahymena, amino acids 1-19; also called H3K9me3 peptide; source: synthetic peptide
B4: Tetrahymena histone H3 peptide, amino acids 16-35, tri-methylated at lysine 27, C-terminally biotinylated (peptide, UniProt P69150 17-36, looked up)
peptide: PRKQLASKAAR[Lys(Me3)]SAPATGGI-{PEG-biotin}
modifications: reading uncertain
notes: histone H3, Tetrahymena, amino acids 16-35; also called H3K27me3 peptide; source: synthetic peptide
B5: Tetrahymena histone H3 peptide, amino acids 1-19, tri-methylated at lysine 4, C-terminally biotinylated (peptide, UniProt P69150 2-20, looked up)
peptide: ART[Lys(Me3)]QTARKSTGAKAPRKQ-{PEG-biotin}
modifications: reading uncertain
notes: histone H3, Tetrahymena, amino acids 1-19; That the K4me3 peptide is the 1-19 peptide follows from the position of the residue; also called H3K4me3 peptide; source: synthetic peptide

Biological target: T1, MBP-tagged cysteine-rich domain (566 …)
Test: pull-down; biotin-tagged histone peptides (1 ug) immobilised on streptavidin Dynabeads, 1 ug MBP-Tpb2p-CRD added, overnight at 4°C; 10 mM Tris pH 7.5, 0.1 mM ZnSO4, 0.05% NP40, 250 mM NaCl; western blot with anti-MBP
Conditions: both partners purified

Binder | binding result
B1 | binds
B2 | binds
B3 | binds
B4 | binds
B5 | binds
